The text below walks through data of a protein production outcome set (Wang et al. 2014).

The data set can be described thus: label from the status in PepcDB records.

Turning to “MDLSVVVPTLNARDALLDALDALAAHAPAAEVVVANGPSVDGTSGTVRDHDAVDTLLELSERNLNAARNAGIAATNGTVVAFIGQDTHIQPGWTNAVADAIADGADAVTGPVHRTVEGGVTTESVDEATVSGRDVTFFDGANVAITRRALRALDGFDEALQTGAARDAAHRLAGMDRRVAWAPNACVLRTDADDVIHRLPEDADSSARGLKYRALAYRLTKNYGATAAITARVLRHAVGDAASVGGAVLRGDADLSTWVGAGLAVLPGLWRGSQAGLSARVADRTTTRNPNGVSTRMDRVHARHD”, the protein production result is on record as “failed”. For “MDLVEKVKELCLELEEENLAKAIERFITLTHGIEKTRGEAFAKASIYGFLEGILTTLKMKYSNEKIETLLNEVKTAREETEALLRKPRPPLLVDNDL” the value was “not failed”; for “MDLWKLYQPGTPAAIVAWGQLGTAHAKTTYGLLRHSRLFKPVCVVAEHEGKMASDFVKPVRYDVPVVSSVEKAKEMGAEVLIIGVSNPGGYLEEQIATLVKKALSLGMDVISGLHFKISQQTEFLKIAHENGTRIIDIRIPPLELDVLRGGIYRKKIKVVGVFGTDCVVGKRTTAVQLWERALEKGIKAGFLATGQTGILIGADAGYVIDAVPADFVSGVVEKAVLKLEKTGKEIVFVEGQGALRHPAYGQVTLGLLYGSNPDVVFLVHDPSRDHFESFPEIPKKPDFEEERRLIETLSNAKVIGGVSLNGGFETDLPVYDPFNTDDLDEMLERAMVW”, “not failed”; for “MDMGNQHPSISRLQEIQREVKAIEPQVVGFSGLSDDKNYKRLERILTKQLFEIDSVDTEGKGDIQQARKRAAQETERLLKELEQNA”, “not failed”.

Consider “MDMIKPDFQQIRRDKFRVEQMNDFPNTWTQQQHQNIRIPNNLDLIGILQNQISVPVQTDLYQDSAATFMNMPQSIHRDPQGPSNWRISDLSQPSTVNHGYDQAGIRPNNVADLLSDHFSSRNQILDRPLYVGRDSIPQSSMIRRSEVSCLDDNQKGCVTVACSGTGNEILRSSYDQGSSSGSYRGEFSFLPSLENQSVAHNASNWNHGPVNVTATSHTNSKKGFPLSLLSDIPPSRDVGNAAVLSTMNIHGPLGPFTGYASILKSSRFLEPAQKMLEEFCISYASKIISRSESTSMEDDDDDDDNLSGFSSSSEPLEPKNRLKKAKLLFLQEEVCKWYKLYNHQLQTVMSSFNTVAGLNTATPYISLALKRTSRSFKALRTAIAEHVKQISSHSSNGNNNNRFQKRQRSLIGNNVGFESQQQHIWRPQRGLPERAVAVLRAWLFDHFLHPYPTDSDKQMLATQTGLSRNQVSNWFINARVRLWKPMVEEIHTLETKAIKNADTSHNIEPSNRPNTVSSPSHEQTLTGLSGTKRSRLEYMDMVGFNRGNVSLTLELRRGVDNVIQTQTQDHQFGTGSQMFHDFVG”, for which the protein production entry is listed as “failed”. With “MDMKAPIKVYMTKKLLGVKPSTSVQEASRLMMEFDVGSLVVINDDGNVVGFFTKSDIIRRVIVPGLPYDIPVERIMTRNLITANVNTPLGEVLRKMAEHRIKHILIEEEGKIVGIFTLSDLLEASRRRLETAISAE” the entry was “not failed”; with “MDMKKHGLSIGINRIESVFFVTLKAIGTLTHEDYLVITPMLEGALSQVDQPKVSLFLDATELDGWDLRAAWDDLKLGLKHKSEFERVAILGNKDWQEWAAKIGSWFIAGEIKYFEDEDDALKWLRY”, “not failed”. For “MDNGDWGYMMTDPVTLNVGGHLYTTSLTTLTRYPDSMLGAMFGGDFPTARDPQGNYFIDRDGPLFRYVLNFLRTSELTLPLDFKEFDLLRKEADFYQIEPLIQCLNDPKPLYPMDTFEEVVELSSTRKLSKYSNPVAVIITQLTITTKVHSLLEGISNYFTKWNKHMMDTRDCQVSFTFGPCDYHQEVSLRVHLMEYITKQGFTIRNTRVHHMSERANENTVEHNWTFCRLARKTDD” the value was “failed”; for “MDNKLPHYSRERLLGEGGMGKVYLAQDNQLQRQVAIKELTYQPKDDEVNHALKEARLLARVNHSNIIQIYNVHDEGDHISLVMEYFNSKTLTQFQQEAYTTLVQKLDLLQQLSAGLAAAHKNGVIHCDLKPSNILVNDQGQLKITDFGIALLASNESQNSEQTASNNPLQFGSLLFMSPEQIKLQAVDYRSDIFSFGIIAYQLMVGSHPFAYGNNGGSATDVAKRICEHTPEHAKNLMLNAPSALTDLLMEMLVKPLEQRTLTAEAIENRLKHIRTALLQAEISEQATMPLSSGSANIAGDDTGQYTQAVHTTLLSQNTQIVQPADNLQASWFKQNYKTVASIALLCLVMILFVGFYNTQEVETKQVVILKPTLADSSLMAPMQQDLVISAVEDALRQAVINTKNMYLISQREVNAITKEYPDDLNKLRQAVGASDIISTTLECDNSRCKVSFSRLVVNDNSSDNLSVKSEKNWLAPVDKFNAIFSTSQTQFASLFPEESEVNQSGLVQRPINENDYRNYIELYSQIKGQGEYSVESLTKLETLLTRSPYLYAAYGLFRETASNLYTDSRDEIHLKRLELVLQNSPPEYRYSVYHAIDSFFVAYKIKELDTAQQQIIEAKNKGASSFVLSELNAILFFSKGQYQKAADTFEEALVLRPSTTLLYNLAFSYWRMGDLSKAEDALNKMLEIIPGNYKAQQLQANIWLLQGKLELAITAYEKIVAALSNGRDLTNLSLAYALNKQYKKSLIYAKKAVDLSPKNRIRRLNLADIEFILGRVKSSNFNYKKVIDAPVDNNKYRYWLDIAQAQLQLNQQNLAIEALNKAKHLAPDNGEVAYTSALVYSVLGERVSAIFEVNKALANKVGSVWFNLPWFDSLCDDKEFELLMVKYNNQKRCRT”, “failed”; for “MDNKVILVGGFHEIIELCEDNDIEIAGIIDNYLTNDTYWGYPIIGTDDKAKVLFETYKNVPVLITPDVPHVRYKLYHYYKSIGFQVASLISRDASISRSAIIGEGTIIQRGANLSSNIKIGQMVKVNTNANIMHDCLIGNYVTVAPNAVLLGKVEIDDKAYIGANATLLPSVKIGENVTVGAGSVVTKSVRLEHHHHHH”, “failed”.

For “MDNPKGIDGFTNLKEKDIATNENKLLRTITADKMIPAFLITPISSQIAGKVIAQVESDIFAHMGKAVLIPKGSKVIGYYSNNNKMGEYRLDIVWSRIITPHGINIMLTNAKGADIKGYNGLVGELIERNFQRYGVPLLLSTLTNGLLIGITSALNNRGNKEGATNFFGDYLLMQLMRQSGMGINQVVNQILRDKSKIAPIVVIREGSRVFISPNTDIFFPIPRENEVIAEFLK”, the protein production result is on record as “failed”.

As for “MDPERDALRIALYYALFSILWILSSDYLVALMFQPHVMVRLSVLKGSLFIILTSLLLYFLLKLYLRSLTDKERALRISEHKFRSLFMELPLGVVLMDTYGRILESNPAMGRFHGDSLDGMLIGEIHPDLEPGPDREFMVRMDGRWLRVVITRIEGGFLGIFEDLTDIKNSEEAARRSLEANRTLLAELHHRVKNNLQIISSLISIQSSKMPREHAEIMRSLQLRIKSIAVIHEMLLSSPESSSISFASYVSGLTGYLRDMYQSAAEFELDVPDVEFNIETAVPLGLIVGELVSNSLRHAFTDGGTIRISLEARDDGFILVVADNGGAFPITSAFRNQPASAWSLLRIW”, the protein production result is “failed”. With “MDPLALALLPGIGPKRLLEVLKAEDPLGFLRERFPEAWRHLPEAEAQAERERGRAEALGVRLLGLWEEGFPEGLRALPQPPTHLYLKGELPPEREAVALVGTRRASPWALAFARRLARELAEAGLWVVSGLARGIDREAHLGALEAGGRTLGVLGSALDRVYPPENRPLAQRMDLLSEFPFGTGPKPEFFPRRNRLIAGLCRAVVVVEAPLDSGALITARHALELGKEVLAVPGRPTDERSLGANRLIQDGAYPVLSAEDVLSYLGMSARPKPLPGLSPEEEALYALLQEKKEALPEALAMALGIPPERVLSLLTLLELKGLARALPGGRYGPG” the entry was “failed”; with “MDPLVSFFDGMAQASWLRPVHDRLKKGTGSWANRAVLDVGCGTGRLLARGVHEAAHLAGVDLSKQMVLATEERLHEHKQCGRLTVVQGDAYDLPFADESFDVCLSTCVMFLLPEPERGMKEMIRVLNGAGVIGMLNPTNKMNHAAAKAYCKKSGITGFEEKTLLQWSNVSTRRHRYTAEQLTHFFKQHGAWVVTHELVLDGLAVVTVASWNKLEHHHHHH”, “failed”.

Consider “MDPSTLMILAIVAVAIIVLAVFFTFVPVMLWISALAAGVKISIFTLVGMRLRRVIPNRVVNPLIKAHKAGLNVGTNQLESHYLAGGNVDRVVNALIAAQRANIELTFERCAAIDLAGRDVLEAVQMSVNPKVIETPFIAGVAMDGIEVKAKARITVRANIERLVGGAGEETIVARVGEGIVSTIGSSDNHKKVLENPDMISQTVLGKGLDSGTAFEILSIDIADVDIGKNIGAILQTDQAEADKNIAQAKAEERRAMAVAQEQEMRARVEEMRAKVVEAEAEVPLAMAEALREGNIGVMDYMNIKNIDADTEMRDSFGKLT”, for which the protein production entry is “failed”. For “MDPYFELRLSELKSIPVVTWLQFSIDNAREPGILVQSGQIWALLPPELTEKTRCFAIELGNECMRLKDYDNDDGKRVWLSDDELTRFIEQAETPHQRLAFLLAGRVGLRRSEIIEVCPQDLVDGPTGDHIRVWESYAKRDKYREPPVPQEVVTIAETLAYQQDDDEPLLDVAGSTVYRWVRRAADELEEETGDRGWQYLDVHDLRRTWGTYLLEQGVIPSVVMSFGGWEDWDTFRKHYLGEFSPEAIRRERGKVDFLEGGDESAEVVHPGTMPPASHHTAD” the value was “failed”; for “MDQFPESVTENFEYDDLAEACYIGDIVVFGTVFLSIFYSVIFAIGLVGNLLVVFALTNSKKPKSVTDIYLLNLALSDLLFVATLPFWTHYLINEKGLHNAMCKFTTAFFFIGFFGSIFFITVISIDRYLAIVLAANSMNNRTVQHGVTISLGVWAAAILVAAPQFMFTKQKENECLGDYPEVLQEIWPVLRNVETNFLGFLLPLLIMSYCYFRIIQTLFSCKNHKKAKAIKLILLVVIVFFLFWTPYNVMIFLETLKLYDFFPSCDMRKDLRLALSVTETVAFSHCCLNPLIYAFAGEKFRRYLYHLYGKCLAVLCGRSVHVDFSSSESQRSRHGSVLSSNFTYHTSDGDALLLL”, “failed”; for “MDQIFNKVGSYWLGQKANKQFDSVGNDLNSVSTSIEGGTKWLVNKIKGKMQKPLPELLKEYDLPIGIFPGDATNYEFDEETKKLTVLIPSICEVGYKDSSVLKFTTTVTGHLEKGKLTDVEGIKTKVMIWVKVTSISTDASKVYFTAGMKKSRSRDAYEVQRNGLRVDKF”, “not failed”. With “MDQKSTTCLEALAKLSQQREHQTTPATLCSSEHFFANETIYSDATFLSTTEEAFISSPSSSTQGPKPGLKRVSTGPMTRILEGCQNDKPNSPELERVEEAEDNYSGTSSEEAFSQGIPYPHQVGGHGALSSFERGRVLKPAAKKEIDFYNFIYSDNLPSELEWLRTVTPKYFGQRKTQAKAKRILENQVTPFSQTSSVPVNTVLHIDRKDSERNIWKDQVGELVMDTNPWARACLLKELQKEDEVKSFIILEDLTCHLKKPCVLDCKMGTRHYDDDATEEKKKAHIEKATKTTSSSTGIRFTGMQVYKLPSHTFLFHDKYYGRQLKSHELKNELFEFFHNGVLLRVDIIEQFLSKLQWLYQHLENQHYFNFYSSSLLFVYEGDEMATCPISDVRMIDFAHTQRCVEEQQNDGYLFGLSNLIHLMKSLLEDERNEMR” the entry was “failed”; with “MDQLWANRAASAEAAITERHLKKLWGLPGTQLGVVAWPPARKYTLFGTWHYWWQAHLLDCLVDAQVRDPQPERTTRIERQLRAHRLRNNLSWVNDYYDDMAWLALAIERAGRLAGVEKPTALRKLCDQFVTAWVPEDGGGIPWRKQDQFFNAPANGPAGIFLARYDDRLRRAQQMADWIDETLIDPDTHLVFDGIKAGSLVRAQYTYCQGVVLGLEVELAVRTQDPRHAPRVRRLVAAVDKEMTTDGVIKGAGGGDGGLFNGILARYLALVATTLPGETPEDIAARDTARTIVLKSARSAWDHRQTVDGLPLFSAFWDRNAEIPTAGGKEAEFVEGAVNASSVPERDLSVQLAGWMLMEAAHSVDSVDAEDAAGDQNGAGDGEVGHDENEDEELEHHHHHH”, “not failed”.
